Assay results reported in patent publication US10227575B2, “Multi-domain enzymes having cutinase activity, compositions comprising same and uses thereof” (OZYMES, priority 2015, dated 2019).

Tests used:
[1] = Circular dichroism spectroscopy, melting temperature and refolding; assay type: physicochemical; details: for melting temperature (Tm): unfolding; for Tm (° C.): estimated using CD-spectroscopy
Description: CD spectra were recorded using a Jasco™ J-815 spectrometer operating with the Spectra™ Manager software. Temperature was controlled using a Jasco™ PFD-452S peltier unit. Previously purified protein solutions were adjusted to 0.15 mg/mL (if quantities allowed for) and CD spectra were recorded between 190 and 250 nm using a Quartz cuvette (ID=0.1 cm). Blanks containing buffer only were prepared and used as baseline. Temperature dependent protein unfolding was monitored at 222 nm with thermo profiles ranging from 20 up to 90° C. (2° C. min-1). Samples were kept for 5 min at the respective maximum temperature and protein refolding was monitored using the same conditions as above reversing the thermo profiles. Thermodynamic parameters (Tm, ΔH, ΔS, ΔG) for the folding/unfolding process, if applicable, were calculated using the Spectra™ Manager software.

[2] = Thermostability of purified enzymes; assay type: physicochemical
Description: Enzyme thermostability was studied over a temperature range of 50-95° C. using the purified enzyme preparations. Aliquots were incubated at the desired temperature for 5, 10, 30, 60, and 120 minutes, chilled on ice, and assayed for remaining activity towards p-NP-palmitate (pNPP) at room temperature.

[3] = Pectin release from hemp fibre (TBA method)
Description: Hemp fibres (German variety, 150 mg) were treated with either pectate lyase (PL, 10 U) or PL combined with various amounts of KrCUT (40, 60 and 100 U). Control experiments containing no enzyme or 100 U of KrCUT were conducted for comparison. After incubation at 37° C., aliquots of the reaction mixture were taken at 1 h 30 min and 3 h, and analyzed for pectin degradation products using the thio-barbituric acid (TBA) method (52) which detects released unsaturated compounds spectrophotometrically at 550 nm.
The quantity of pectin released from natural hemp fibre by KrCUT in conjunction with the action of a thermostable pectate lyase was assessed as described in Example 1, section 1.13. The thermostable pectate lyase alone released a certain amount of pectin as expected of the pectinolytic activity (Xiao et al., 2008).

[4] = Esterase assay, specific activity of KrCUT versus YebF-KrCUT; assay type: biochemical; details: pNP-palmitate as substrate
Description: Esterase activity was determined by monitoring the formation of pNP at 410 nm from various pNP-esters using a Beckman UV spectrophotometer (model DU 640) (21). Substrates were dissolved in isopropanol and were added to 50 mM sodium phosphate buffer pH 8.0 to give 10% (v/v) total isopropanol concentration in a 1 mL reaction volume. pNP-butyrate was used at a final concentration of 1.2 mM. For pNP-caprylate, myristate and palmitate, the final concentration ranged from 0.1 to 0.5 mM. The reaction (1 mL) was started by adding an appropriate amount of enzyme. One enzyme unit (U) is defined as the amount of enzyme that produced 1 μmol of product (pNP) per min; specific activity is expressed as U/mg protein. A molar extinction coefficient of 15 mM^−1 cm^−1 for pNP is used for calculating enzyme activity.
The presence of YebF appeared to greatly decrease the activity of the fusion proteins. […] The results are shown in FIG. 6, in which fractions C1-C10 correspond to the first peak (KrCUT) and fractions D9-D11 correspond to the second peak (YebF-KrCUT).

[5] = Adsorption assay on PHB granules (Langmuir isotherm); assay type: binding
Description: Purified KrCUT of concentrations ranging from 0.16 to 3.2 mg/mL were mixed with 25 mg PHB in 50 mM sodium phosphate (pH 8.0) in a total volume of 1 mL and mixed by gently shaking for 3 h. The PHB polymer was removed by centrifugation and the concentration of protein in the supernatant was determined by the BCA method. The concentration of bound protein at a particular concentration of cutinase was calculated as the difference between a control without added PHB and free cutinase after incubation with PHB.
Adsorption assays were carried out following procedures of Kasuya et al. (1999). Purified KrCUT and KrCUT189 at concentrations ranging from 0.16 to 3.2 mg/mL were added to a suspension of 25 mg PHB in 50 mM sodium phosphate (pH 8.0) in a total volume 1 mL. The mixture was incubated at room temperature with gentle shaking for at least 3 h. The PHB polymer was removed by centrifugation and the concentration of protein in the supernatant was determined by the BCA method. The concentration of bound protein at a particular concentration of cutinase was calculated as the difference between a control without added PHB and free cutinase after incubation with PHB. An isotherm of [Bound](mg/mg PHB) vs [Free] (mM) was generated and binding parameters were determined by non-linear regression using the Langmuir equation:
[formula] where [E]=Ead+[E]e, is the concentration of the protein added; Emax is the maximum amount of protein adsorbed on the polyester granules, and K is the adsorption equilibrium constant of the protein.

[6] = Thermostability of purified KrCUT (40-60° C.); assay type: biochemical
Description: Enzyme stability was studied over the temperature range of 40-60° C. using purified KrCUT. Aliquots were withdrawn at defined times (10, 30 and 80 min), chilled on ice, and assayed for activity against p-NP butyrate at room temperature. KrCUT appeared thermostable up to 45° C.

[7] = Long term stability of KrCUT in culture medium; assay type: physicochemical; details: for Activity (U/mL): culture medium at 4° C.
[8] = Degradation of polylactic acid; details: 2.5 μM; 2 Units

B1: Am-Kr: chimeric variant: AmCUT fused to the T/P-rich linker domain and polymer binding domain of KrCUT, SEQ ID NO: 27 (protein)
chain: ACSDLEIVFARGSGEAPGLGITGTPLVSDVKSALSSASVSSYAVDYAASYDQTSAGPGATDMSNHIKSTAAACPDTKFAIGGYSQGASVTDIAIGIRTYLGTGQTIPTELAPRVVAVIAFGNPLGLYGQTIKTASPTYGPKSLEFCNRGDNVCGGTGTGPGYGHLSYARDGSVDQAAAFIAKQYNASAGTPTTPTPTPTPTPVPTTCVRDSTRDHVAADRAVSLYGRAYARGSRDSLGATSSYNVVSLQQVEGGWRLVTAC
modifications: YebF carrier; Am-Kr variant
refolding ([1]; CD at 222 nm): did not show any refolding | melting temperature (Tm) ([1]; CD at 222 nm): 55.0 °C | Tm (° C.) [1]: 55 ± 1 °C

B2: CfCUT: mature wild-type cutinase from Cellulomonas flavigena, SEQ ID NO: 28 (protein, listed as Cellulomonas flavigena)
chain: APACPDVELVFARGTGEAAGLGIVGRPLERALAAELPGRTVVATAVDYAASSSQASAGPGSGDMVAKVRSRAAACPGTQFVLGGYSQGATVTDLALGIRTGVTAGTALPEDLAARVAAVVVYGNPLGLTRRTIAQAAPAFATRTVEYCNAGDPVCEPGGGRFTAHITYATNGTVLEGARFAAARVTAPAPTPTPGPTGTPAPVPSAEPTPAPGDTCVTASSLQHVRDGRAYPLWMRTYARGSGDPLGVLSSRTVVSLQADGTDTWRKVAAC
refolding ([1]; CD at 222 nm): did not show any refolding | melting temperature (Tm) ([1]; CD at 222 nm): 65.2 °C | Tm (° C.) [1]: 65 ± 1 °C

B3: Cf-TP: chimeric variant: catalytic and polymer binding domains of CfCUT with T/P-rich linker domain of KrCUT, SEQ ID NO: 29 (protein)
chain: APACPDVELVFARGTGEAAGLGIVGRPLERALAAELPGRTVVATAVDYAASSSQASAGPGSGDMVAKVRSRAAACPGTQFVLGGYSQGATVTDLALGIRTGVTAGTALPEDLAARVAAVVVYGNPLGLTRRTIAQAAPAFATRTVEYCNAGDPVCEPGGGRFTAHITYATNGTVLEGARFAAARVTAAGTPTTPTPTPTPTPVPTTCVTASSLQHVRDGRAYPLWMRTYARGSGDPLGVLSSRTVVSLQADGTDTWRKVAAC
modifications: YebF carrier; Cf-TP variant
Relative activity remaining (thermostability) ([2]; 10 min): 43 ± 3% | refolding ([1]; CD at 222 nm): some refolding | melting temperature (Tm) ([1]; CD at 222 nm): 56.6 °C | Tm (° C.) [1]: 57 ± 1 °C

B4: KrCUT: mature Kineococcus radiotolerans cutinase, amino acids 34-294 of SEQ ID NO: 1; SEQ ID NO: 6 (protein)
chain: ATCSDVDVVFARGTGETPGLGVVGGPFVRSLTGELSDRTVTSHAVDYAASSSQASAGPGATAMSAHVREVAAACPSTRFVLGGYSQGATVTDIALGIRTGTTTGTPVPAELAGRVAAVVVFGNPLGLSGRTIATASSTYGPKSKDYCNSSDSVCGSAPKTGTGGHLSYASNGSTTDGARFAAGLVRAAGTPTTPTPTPTPTPVPTTCVRDSTRDHVAADRAVSLYGRAYARGSRDSLGATSSYNVVSLQQVEGGWRLVTAC
modifications: Kineococcus radiotolerans; (1)..(261) KrCUT (lacking residues 1-33 of ssKrCUT)
pectin released from hemp fibre ([3]; highest concentration, absence of pectate lyase): negligible amounts | pectin degradation products detected ([3]; increasing amount of cutinase, fixed pectate lyase): higher percentage of pectin degradation products | specific activity [4]: 162 U/mg | binding to PHB [5]: binds efficiently | degradation of PHB [5]: did not degrade | adsorption equilibrium constant (K) ([5]; 25° C., pH 8.0): 0.12±0.03 ml/mg PHB | maximum amount of cutinase absorbed on the PHB granules (Emax) ([5]; 25° C., pH 8.0): 23.68 ± 0.03 µg/mg | thermostable up to ([6]; 10, 30 and 80 min heat treatment): up to 45 °C | activity left after heat treatment ([6]; 50° C. and above, 10 min): virtually no activity left | Activity (U/mL) ([7]; 0 months): 3.0 ± 0.94 U/mL | Activity (U/mL) ([7]; 3 months): 25.67 ± 0.94 U/mL | Activity (U/mL) ([7]; 4 months): 17.13 ± 0.70 U/mL | Activity (U/mL) ([7]; 17 months): 16.66 ± 2.47 U/mL | Activity (U/mL) ([7]; 19 months): 21.94 U/mL | activity retained ([7]; room temperature, culture medium without additives, 4 months): full activity | Relative activity remaining (thermostability) ([2]; 50° C., 5 min, time 0 = 100%): 61 ± 5% | Relative activity remaining (thermostability) ([2]; 50° C., 10 min, time 0 = 100%): 31 ± 4% | Relative activity remaining (thermostability) ([2]; 50° C., 30 min, time 0 = 100%): 12 ± 2% | Relative activity remaining (thermostability) ([2]; 50° C., 60 min, time 0 = 100%): 6% | Relative activity remaining (thermostability) ([2]; 55° C., 5 min, time 0 = 100%): 45 ± 4% | Relative activity remaining (thermostability) ([2]; 55° C., 10 min, time 0 = 100%): 26 ± 4% | Relative activity remaining (thermostability) ([2]; 55° C., 30 min, time 0 = 100%): 4% | Relative activity remaining (thermostability) ([2]; 60° C., 5 min, time 0 = 100%): 34 ± 4% | Relative activity remaining (thermostability) ([2]; 60° C., 10 min, time 0 = 100%): 12 ± 2% | Relative activity remaining (thermostability) ([2]; 65° C., 5 min, time 0 = 100%): 19 ± 2% | PLA degraded [8]: approximately 5% | refolding ([1]; CD at 222 nm): refolding to some extent | midpoint transition temperature of refolding ([1]; CD at 222 nm, high to low temperature): 42.7 °C | melting temperature (Tm) ([1]; CD at 222 nm): 50.7 °C | Tm (° C.) [1]: 51 ± 1 °C
